Reference: patent US20150037339A1 (Regeneron, published 2015)

Key:
Activin A [1] = target: T1, Activin A (human, UniProt P08476 311-426); assay: SPR, captured mAb, 25C
T1 construct: Homodimer of two βA subunits; bought from R&D Systems (#338-AC); also called inhibin-βA dimer; human Activin A
T1 sequence: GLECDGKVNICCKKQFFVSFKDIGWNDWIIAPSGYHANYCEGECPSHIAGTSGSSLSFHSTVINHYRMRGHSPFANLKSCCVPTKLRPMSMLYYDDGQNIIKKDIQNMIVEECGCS
Description: (§1) Antibody-antigen association was monitored for 240 seconds while dissociation in buffer was monitored for 600 seconds. Kinetic association and dissociation rate constants were determined by processing and fitting the data using Scrubber software version 2.0c. Binding equilibrium dissociation constants (KD) and dissociative half-lives (t_{1/2}) were then calculated from the kinetic rate constants as: KD (M)=kd/kₐ and t_{1/2} (min)=[ln 2/(60*kd)]. (NB=no binding observed under the conditions used; NT=not tested).

Activin A [2] = target: T1, Activin A; assay: SPR, captured mAb, 37C
Description: as §1

Activin A [3] = target: T1, Activin A; assay: SPR, captured mAb, 25C; no dissociation observed, kd fixed
Description: as §1

Activin A [4] = target: T1, Activin A; assay: SPR, captured mAb, 37C; no dissociation observed, kd fixed
Description: as §1

Activin A [5] = target: T2, Activin A (human, UniProt P08476 311-426); assay: cell-based or functional assay
T2 sequence: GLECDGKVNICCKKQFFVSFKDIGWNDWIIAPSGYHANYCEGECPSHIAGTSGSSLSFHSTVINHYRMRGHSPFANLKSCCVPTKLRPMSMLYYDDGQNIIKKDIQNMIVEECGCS

Activin AB [6] = target: T3, Activin AB (human, UniProt P08476 311-426; P09529 293-407); assay: cell-based or functional assay
T3 chain 1: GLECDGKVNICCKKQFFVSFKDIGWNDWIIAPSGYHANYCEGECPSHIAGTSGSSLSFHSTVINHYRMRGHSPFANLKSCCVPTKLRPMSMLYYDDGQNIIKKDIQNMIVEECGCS
T3 chain 2: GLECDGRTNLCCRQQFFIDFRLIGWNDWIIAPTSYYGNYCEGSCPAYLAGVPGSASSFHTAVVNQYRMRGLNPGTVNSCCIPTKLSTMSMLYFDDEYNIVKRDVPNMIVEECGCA

Activin AC [7] = target: T4, Activin AC (human, UniProt P55103 237-352); assay: cell-based or functional assay
T4 sequence 1: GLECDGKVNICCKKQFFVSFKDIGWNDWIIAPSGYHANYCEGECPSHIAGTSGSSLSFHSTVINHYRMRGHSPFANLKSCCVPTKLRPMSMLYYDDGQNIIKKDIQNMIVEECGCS
T4 sequence 2: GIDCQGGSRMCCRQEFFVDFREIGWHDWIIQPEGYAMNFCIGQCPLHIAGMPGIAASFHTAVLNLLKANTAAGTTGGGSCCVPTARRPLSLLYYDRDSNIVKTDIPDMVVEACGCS

Activin AB [8] = target: T3, Activin AB; assay: SPR (Biacore), mAb captured on anti-Fc, Activin AB injected, 25 C
Description: as §1

Activin AB [9] = target: T3, Activin AB; assay: SPR (Biacore), mAb captured on anti-Fc, Activin AB injected, 37 C
Description: as §1

Activin AC [10] = target: T4, Activin AC; assay: SPR (Biacore), mAb captured on anti-Fc, Activin AC injected, 25 C
Description: as §1

Activin AC [11] = target: T4, Activin AC; assay: SPR (Biacore), mAb captured on anti-Fc, Activin AC injected, 37 C
Description: as §1

B1: H4H10452P2 (antibody, human IgG4, V domains shown)
VH: QVQLQESGPGLVKPSETLSLTCTVSGGSFSSHFWNWIRQSPGRGLEWIGYIYYSGGTNYNPSFKSRVTMSVDTSKNQFSLKLSSVTAADTAVFYCARARSGITFGGVLVPGSFDIWGQGTMVTVSS
VL: not shown
Activin A-20 nM (RU) (Activin A [1]): 55 RU | Kd (Activin A [1]): ≤ 0.0107 nM | kon (Activin A [1]): 4.69e+06 M⁻¹ s⁻¹ | t1/2 (Activin A [1]): ≥ 231 min | Activin A-20 nM (RU) (Activin A [2]): 43 RU | Kd (Activin A [2]): ≤ 6.3 pM | kon (Activin A [2]): 7.94e+06 M⁻¹ s⁻¹ | t1/2 (Activin A [2]): ≥ 231 min | koff (Activin A [3]): ≤ 5e-05 s⁻¹ | koff (Activin A [4]): ≤ 5e-05 s⁻¹

B2: H4H10426P (antibody, human IgG4, V domains shown)
VH: EVQLVESGGNLVQSGRSLRLSCTASGFAFDDFAMHWVRQVPGKGLEWVSGISWNSDTIGYADSVKGRFTISRDNAQNSLFLQMDSLRAEDTALYYCVKDMVRGLIGYYYYGMDVWGQGTTVTVSS
VL: EIVLTQSPAILSLSPGERAILSCRASQSIYTYLSWYQQTPGRAPRLLIYETSSRATGIPARFIGSGSGTDFTLTISSLEPEDFAFYYCQHRSDWPPTFGQGTKLEIK
IC50 [M], inhibition of 100 pM Activin A in A204/CAGAx12-Luc Smad2/3-luciferase bioassay (Activin A [5]): 2.3e-10 M

B3: H4H10437P2 (antibody, human IgG4, V domains shown)
VH: EVQLVESGGGLVQPGRSLRLSCAASGFTFDDYAMHWVRQAPGKGLEWVSGISWNSGSIGYADSVKGRFTISRDNAKNSLYLQMNSLRAEDTALYYCAKDIMGNWDYFYGMDVWGQGTTVTVSS
VL: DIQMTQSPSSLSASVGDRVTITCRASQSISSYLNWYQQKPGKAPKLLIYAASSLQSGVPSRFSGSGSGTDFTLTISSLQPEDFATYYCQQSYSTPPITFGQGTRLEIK
IC50 [M], inhibition of 100 pM Activin A in A204/CAGAx12-Luc Smad2/3-luciferase bioassay (Activin A [5]): 2.9e-10 M

B4: H4H10438P2 (antibody, human IgG4, V domains shown)
VH: EVQLVESGGGLVQPGRSLRLSCAASGFTFDDNAMHWVRQPPGKGLEWVSGISWNSGSIGYADSVKGRFTISRDNAKNSLYLQMNSLRAEDTALYYCAKDINDILTGYPLFDYWGQGTLVTVSS
VL: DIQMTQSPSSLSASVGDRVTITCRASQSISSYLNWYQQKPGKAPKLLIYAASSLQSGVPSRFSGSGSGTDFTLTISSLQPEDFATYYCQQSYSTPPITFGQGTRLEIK
IC50 [M], inhibition of 100 pM Activin A in A204/CAGAx12-Luc Smad2/3-luciferase bioassay (Activin A [5]): 2.6e-10 M

B5: H4H10452P2 (antibody, human IgG4, V domains shown)
VH: QVQLQESGPGLVKPSETLSLTCTVSGGSFSSHFWNWIRQSPGRGLEWIGYIYYSGGTNYNPSFKSRVTMSVDTSKNQFSLKLSSVTAADTAVFYCARARSGITFGGVLVPGSFDIWGQGTMVTVSS
VL: not shown
IC50 [M], inhibition of 100 pM Activin A in A204/CAGAx12-Luc Smad2/3-luciferase bioassay (Activin A [5]): 5.8e-11 M

B6: H4H10432P2 (antibody, human IgG4, V domains shown)
VH: EVQLVESGGGLVQPGRSLTLSCAVSGFTFDDHAMHWVRQAPGKGLEWVSGISWNSVSIGYADSVKGRFTISRDNAKTSLYLQMNSLRVDDTALYYCVQDLNDILTGYPLFDFWGQGTLVTVSS
VL: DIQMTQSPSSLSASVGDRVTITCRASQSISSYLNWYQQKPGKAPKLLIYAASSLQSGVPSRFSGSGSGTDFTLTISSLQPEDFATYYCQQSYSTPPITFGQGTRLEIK
IC50 [M], inhibition of 100 pM Activin A in A204/CAGAx12-Luc Smad2/3-luciferase bioassay (Activin A [5]): 1.1e-10 M | IC50 [M], inhibition of 30 pM Activin AB in A204/CAGAx12-Luc Smad2/3-luciferase bioassay (Activin AB [6]): 8e-10 M | IC50 [M], inhibition of 4 nM Activin AC in A204/CAGAx12-Luc Smad2/3-luciferase bioassay (Activin AC [7]): 2.8e-09 M | 50 nM Ag Bound (RU) (Activin AB [8]): 38.3 RU | Kd (Activin AB [8]): 0.568 nM | koff (Activin AB [8]): 0.00227 s⁻¹ | kon (Activin AB [8]): 4e+06 M⁻¹ s⁻¹ | t1/2 (Activin AB [8]): 5.1 min | 50 nM Ag Bound (RU) (Activin AB [9]): 44.4 RU | Kd (Activin AB [9]): 1.1 nM | koff (Activin AB [9]): 0.00592 s⁻¹ | kon (Activin AB [9]): 5.4e+06 M⁻¹ s⁻¹ | t1/2 (Activin AB [9]): 2 min | 50 nM Ag Bound (RU) (Activin AC [10]): 34.9 RU | Kd (Activin AC [10]): 2.98 nM | koff (Activin AC [10]): 0.00187 s⁻¹ | kon (Activin AC [10]): 629000 M⁻¹ s⁻¹ | t1/2 (Activin AC [10]): 6.2 min | 50 nM Ag Bound (RU) (Activin AC [11]): 34.6 RU | Kd (Activin AC [11]): 12.5 nM | koff (Activin AC [11]): 0.00902 s⁻¹ | kon (Activin AC [11]): 722000 M⁻¹ s⁻¹ | t1/2 (Activin AC [11]): 1.3 min

B7: H4H10423P (antibody, human IgG4, V domains shown)
VH: QVQLQQSGPGLLKPSQTLSLTCAISGDSVSSNSAAWSWIRQSPSRGLEWLGRTYYRANWFNDYALSVKSRITINPVTSTNHFSLQLHSVTPEDTAVYYCAREGALGYYFDSWGQGTLVTVSS
VL: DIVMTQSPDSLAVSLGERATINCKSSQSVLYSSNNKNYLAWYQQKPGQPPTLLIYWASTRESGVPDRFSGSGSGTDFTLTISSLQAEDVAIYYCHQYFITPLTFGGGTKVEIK
IC50 [M], inhibition of 100 pM Activin A in A204/CAGAx12-Luc Smad2/3-luciferase bioassay (Activin A [5]): 2e-10 M | 50 nM Ag Bound (RU) (Activin AB [8]): 14.7 RU | Kd (Activin AB [8]): 33.1 nM | koff (Activin AB [8]): 0.0203 s⁻¹ | kon (Activin AB [8]): 613000 M⁻¹ s⁻¹ | t1/2 (Activin AB [8]): 0.6 min | 50 nM Ag Bound (RU) (Activin AB [9]): 21.7 RU | Kd (Activin AB [9]): 24.2 nM | koff (Activin AB [9]): 0.0213 s⁻¹ | kon (Activin AB [9]): 880000 M⁻¹ s⁻¹ | t1/2 (Activin AB [9]): 0.5 min | 50 nM Ag Bound (RU) (Activin AC [10]): -0.8 RU | 50 nM Ag Bound (RU) (Activin AC [11]): 0 RU

B8: H2aM10965N (antibody, mouse IgG2a, V domains shown)
VH: RVQLVQSGSEVKKPGASVKVSCRASGYIFTSYDINWVRQATGQGLEWMGWMNPNNGNTAYTQKFQGRVTMTRNTSISTAYMELSSLRSEDTAVYYCARKGLLWFGKLLGYGMDVWGQGTTVTVSS
VL: not shown
IC50 [M], inhibition of 100 pM Activin A in A204/CAGAx12-Luc Smad2/3-luciferase bioassay (Activin A [5]): 3.5e-09 M
